# Biological target: mouse proNGF (mouse) (UniProt P01139)
# Test: SAXS
substance,measurement,value
mouse proNGF (from UniProt P01139 19-241) (natural protein),stoichiometry N,2

# From paper doi:10.1101/333070
